Experimental data as given in patent CN110845607A (UNIV WEIFANG MEDICAL; SHANDONG KUANHEZHENG BIOMEDICINE CO …, dated 2020).

Biological target: 牛血清蛋白 (BSA) (bovine, UniProt P02769 25-607)
Assay: ELISA

牛血清蛋白 (BSA), sequence (P02769 25-607 limits assumed): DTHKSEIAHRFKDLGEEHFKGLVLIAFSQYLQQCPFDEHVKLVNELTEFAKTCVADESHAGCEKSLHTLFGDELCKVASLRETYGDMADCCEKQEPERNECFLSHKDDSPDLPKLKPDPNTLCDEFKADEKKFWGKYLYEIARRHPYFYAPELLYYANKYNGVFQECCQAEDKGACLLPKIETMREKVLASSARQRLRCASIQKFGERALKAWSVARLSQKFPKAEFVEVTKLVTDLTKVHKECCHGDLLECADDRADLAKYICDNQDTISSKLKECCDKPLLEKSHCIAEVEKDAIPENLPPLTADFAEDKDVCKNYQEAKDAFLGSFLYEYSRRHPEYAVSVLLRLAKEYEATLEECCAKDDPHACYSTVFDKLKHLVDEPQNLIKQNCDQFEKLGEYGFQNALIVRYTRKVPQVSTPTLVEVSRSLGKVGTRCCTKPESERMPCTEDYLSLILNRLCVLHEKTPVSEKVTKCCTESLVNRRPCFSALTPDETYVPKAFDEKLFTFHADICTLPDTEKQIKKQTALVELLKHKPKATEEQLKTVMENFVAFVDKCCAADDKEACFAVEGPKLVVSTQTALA

B1: F1 Fab片段 (purified Fab fragment of anti-H1N1 monoclonal antibody F1) (Fab, V domains shown)
VH: QVQLKESGDDLVKPGASVKLSCKASGYTFTNYWINWIKQRPGQGLEWIGRTAPGSGSTYYNELFKGKATLTVDTSSSTAYIQLSSLSSEDSAVYFCALSTGTGALDYWGQGTSVTVS
VL: DIVMTQSPLSLPVSLGDQASISCRSSQSLVHSNGNTYLHWYLQKPGQSPKLLIYKVSNRFSGVPDRFSGSGSGTDFTLKISRVEAEDLGVYFCSQSTHVPWTFGGGTKLEIKR
notes: also called 抗体F1Fab; 单克隆抗体F1
Does B1 bind?
Result: no binding
